Experimental data taken from patent US20050079613A1, “Downregulation of cell surface glycoproteins by a family of human ubiquitin ligases” (Oregon Health & Science University, priority 2002, published 2005).

Assays:
ubiquitin = test: In vitro ubiquitination assay with GST-fused RING-CH (PHD) domains, E1, E2 panel, anti-ubiquitin immunoblot; assay type: biochemical; conditions: E2 = UbCH2
Protocol: Ubiquitination assay. UbCH2 and UbCH3 were obtained from Boston Biochem. (His)6-UbCH5a and GST fusion proteins were expressed in BL21-DE3 cells (Stratagene) and BL21 cells (Amersham), respectively, and purified as previously described (Boutell, C., S. Sadis and R. D. Everett, J. Virol. 76:841-850, 2002; Tiwari, S. and A. M. Weissman, J. Biol. Chem. 276:16193-16200, 2001). Purified E3 proteins were stored at 4° C., and E2 proteins were stored at −80° C. In vitro reaction mixtures (20 μl total) included: 50 nM rabbit E1 (Boston Biochem), 28 μM Ubiquitin, 5 mM ATP, 50 mM Tris-HCl pH 7.5, 50 mM NaCl, and 2 mM DTT. E2 enzymes were used at concentrations varying from 0.1 to 2.3 μM, and E3 concentrations ranged from 3 to 30 μM. After 90 minutes of incubation at 30° C., reactions were stopped by boiling in SDS sample buffer. Samples were electrophoresed through 12% polyacrylamide SDS gels and blotted using anti-ubiquitin mouse antibody, P4D1 (Santa Cruz Biotech).
In vitro reaction mixtures (20 μl total) included: 50 nM rabbit E1 (Boston Biochem), 28 μM Ubiquitin, 10 mM ATP, 50 mM Tris-HCl pH 7.5, 50 mM NaCl, and 2 mM DTT. E2 enzymes were used at concentrations varying from 0.7 to 2.3 μM, and E3 concentrations ranged from 3 to 25 μM. After 90 minutes of incubation at 30° C., reactions were stopped by addition of 4×reducing sample buffer. Samples were electrophoresed through 12% SDS gels and blotted using anti-ubiquitin mouse antibody (Santa Cruz Biotech).
To examine if the RING-CH domains of MARCH-I and MARCH-II would act as ubiquitin ligases in vitro, DNA fragments encoding the amino-terminal RING-CH-domain of both proteins were fused to Glutathione-S-transferase. The resulting constructs were sequence confirmed and expression of GST-MARCH protein verified by immunoblot. The GST-fusion protein was expressed and purified from E. coli cultures using Glutathione-columns. The ICP0-RING-domain was also purified, in parallel with the MARCH-I and MARCH-II constructs. A panel of E2 enzymes was either purchased from commercial sources or purified either by nickel-chelate chromatography or on glutathione columns. All E2-enzymes formed mercapto-ethanol-sensisitve complexes with ubiquitin thus showing ubiquitin conjugating activity. Purified ubiquitin and E1 was obtained from commercial sources.
To examine if the RING-CH domains of MARCH proteins act as ubiquitin ligases in vitro, a DNA fragment encoding the amino-terminal RING-CH-domains of MARCH-I, II, IV and VIII were fused to Glutathione-S-transferase (GST) for bacterial expression. The GST-fusion proteins were purified from E. coli cultures using Glutathione-sepharose-columns. Approximately thirty E2 proteins are found in the human genome compared to only one E1 enzyme (Pickart, 2001, supra). […] The specificity and selectivity of E3s with respect to E2s, however, is not well characterized. To cover a spectrum of E2s, a panel of E2 enzymes (Mansouri et al., 2003, supra) was acquired. The various E2 enzymes were incubated with or without the RING-CH-GST fusions in the presence of ubiquitin, ATP, E1. The formation of multiubiquitin-adducts was examined by immunoblotting with antibodies against ubiquitin.

HLA-A2.1 = test: Surface expression of co-transfected HLA-A2.1 constructs on HeLa cells, flow cytometry; assay type: cell-based, human
Protocol: Flow cytometry. Cells were removed from tissue culture dishes with 0.05% Trypsin-EDTA (Invitrogen), washed with ice-cold PBS, and incubated with appropriate antibody for 30 minutes at 4° C. The cells were washed with ice-cold PBS and either resuspended in ice-cold PBS or incubated with PE-conjugated anti-mouse secondary antibody (DAKO) and washed again before analysis with a BD Biosciences (San Jose, Calif.) FACScalibur flow cytometer.
The ability to downregulate MHC I is common to KSHV-K3, KSHV-K5, MHV68-K3 and MV-M153R (Coscoy and Ganem, 2000, supra; Guerin et al., 2002, supra; Ishido et al., 2000b supra; Stevenson et al., 2000, supra). Additional substrates are ICAM-1 and B7.2 (but not B7.1) for KSHV-K5, as well as CD95 and CD4 for M153R (Coscoy and Ganem, 2001, supra; Guerin et al., 2002, supra; Ishido et al., 2000a, supra; Mansouri et al., 2003, supra). Since only low copy numbers were detected in HeLa cells for transcripts corresponding to each of the MARCH-proteins (FIG. 7C, and data not shown), HeLa cells were transfected with expression plasmids for MARCH-I, II, III, IV, V and VIII. Surface expression of selected glycoproteins was monitored upon transfection. The following known substrates for viral K3-family members were tested: Fas (CD95) and HLA class I (MHC I), both of which are endogenously expressed in HeLa cells, as well as transfected HLA-A2.1 or CD4. […] Surface expression of the respective markers was analyzed by flow cytometry. GFP was used to identify transfected cells.
The most likely targets for ubiquitination on transmembrane glycoproteins are lysines in the cytoplasmic tail. To examine the role of lysines for MHC I and CD4 downregulation by MARCH-IV, a panel of constructs derived from the human MHC I molecule HLA-A2.1 and a lysine-deleted version of CD4 (Mansouri et al., 2003, supra) were used. In addition to MARCH-IV, MARCH-VIII was included in this analysis since it reduced HLA-A2.1 surface expression (FIG. 10A). […] To rule out the possibility that these mutations changed the target molecules in such a way that they are no longer recognized by MARCH-IV or VIII, a lysine residue into a HA-tag at the carboxyterminal end of HLA-A2.1 was introduced.

B1: MARCH-IV: human membrane-associated RING-CH ubiquitin ligase, SEQ ID NOS:45 and 57; construct used lacks the first 63 amino-acids (protein)
chain: WYCYGLCAPAPQMLRHQGLLKCRCRMLFNDLKVFLLRRPPQAPLPMHGDPQPPGLAANNTLPALGAGGWAGWRGPREVVGREPPPVPPPPPLPPSSVEDDWGGPATEPPASLLSSASSDDFCKEKTEDRYSLGSSLDSGMRTPLCRICFQGPEQGELLSPCRCDGSVKCTHQPCLIKWISERGCWSCELCYYKYHVIAISTKNPLQWQAISLTVIEKVQVAAAILGSLFLIASISWLIWSTFSPSARWQRQDLLFQICYGMYGFMDVVCIGLIIHEGPSVYRIFKRWQAVNQQWKVLNYDKTKDLEDQKAGGRTNPRTSSSTQANIPSSEEETAGTPAPEQGPAQAAGHPSGPLSHHHCAYTILHILSHLRPHEQRSPPGSSRELVMRVTTV
ubiquitin ligase activity with UbCH2 (ubiquitin): mostly active
downregulation of HLA-A2.1 with a lysine re-introduced into the C-terminal HA-tag (HLA-A2.1; HeLa cells): restored downregulation
surface expression of transfected HLA-A2.1 (HLA-A2.1; HeLa cells co-transfected with HLA-A2.1 and MARCH plasmid): reduced the surface expression
downregulation of HLA-A2.1 with lysines removed from the tail (HLA-A2.1; HeLa cells, lysine-less HLA-A2.1 construct): resistant
